This is an account of results in patent publication US20120282280A1 (Hoffmann-La Roche, published 2012).

Assay [1] deals with DIG-Myoglobin (mono-digoxygenated protein). Description: SPR (Biacore), DIG-Myoglobin as analyte; lower end of the range, tied to <DIG>hu2 by Table 3a. Background: In SPR one partner is held on a chip, and binding of the other changes the refractive index at the surface.
The target is the same in assay [2]. Description: SPR (Biacore), DIG-Myoglobin as analyte.
Assay [3] deals with DIG-BP4 (digoxygenated protein). Nature of the assay: SPR (Biacore), antibody captured by anti-human IgG, DIG-BP4 injected 0.3125-10 nM, 25 C.
Assay [4] has as its target DIG-Myoglobin (mono-digoxygenated protein). Description: SPR (Biacore), DIG-Myoglobin as analyte, replicate.
The target in assay [5] is DIG-BP4 (digoxygenated protein). Nature of the assay: SPR (Biacore), antibody captured by anti-mouse IgG, DIG-BP4 injected 0.3125-10 nM, 25 C.
Assay [6] deals with DIG-Myoglobin (mono-digoxygenated protein). Description: SPR (Biacore), DIG-Myoglobin as analyte. The source holds these as a separate data set.
Assay [7] has as its target DIG-BP4 (digoxygenated protein). Description: SPR (Biacore), legend of FIG. 10d (Table 3 and the text print 33 pM).

Sequence of DIG-Myoglobin (mono-digoxygenated protein) (P68082 2-154): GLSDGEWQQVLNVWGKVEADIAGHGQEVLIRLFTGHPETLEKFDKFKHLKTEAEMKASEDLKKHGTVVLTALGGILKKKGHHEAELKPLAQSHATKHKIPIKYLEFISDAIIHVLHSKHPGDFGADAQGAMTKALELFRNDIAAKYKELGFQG

B1: humanized <Dig> IgG (antibody, V domains shown)
VH: QVQLVESGGGLVKPGGSLRLSCAASGFTFSDYAMSWIRQAPGKGLEWVSSINIGATYIYYADSVKGRFTISRDNAKNSLYLQMNSLRAEDTAVYYCARPGSPYEYDKAYYSMAYWGQGTTVTVSS
VL: DIQMTQSPSSLSASVGDRVTITCRASQDIKNYLNWYQQKPGKAPKLLIYYSSTLLSGVPSRFSGSGSGTDFTLTISSLQPEDFATYYCQQSITLPPTFGGGTKVEIKR
notes: also called <DIG>hu2; <DIG>-hu2
B1: the Kd in assay [1] was 15 to 25 nM; in assay [2] it was 15.8 nM; in assay [3] it was < 0.076 nM; in assay [4], 11.8 nM. Moreover, the koff came out at 0.00982 s⁻¹ in assay [2] and 0.00881 s⁻¹ in assay [4]. Moreover, the kon in assay [2] was found to be 620000 M⁻¹ s⁻¹; in assay [4], 749000 M⁻¹ s⁻¹.

B2: murine <Dig> IgG1 kappa from mouse hybridoma clone 19-11 (antibody, V domains shown)
VH: EVQLVESGGGLVKPGGSLKLSCAVSGFTFSDYAMSWIRQTPENRLEWVASINIGATYAYYPDSVKGRFTISRDNAKNTLFLQMSSLGSEDTAMYYCARPGSPYEYDKAYYSMAYWGPGTSVTVSS
VL: DVQMTQSTSSLSASLGDRVTISCRASQDIKNYLNWYQQKPGGTVKLLIYYSSTLLSGVPSRFSGRGSGTDFSLTITNLEREDIATYFCQQSITLPPTFGGGTKLEIK
notes: also called murine DIG-IgG 19-11; <DIG>M-19-11
Consider B2, for which the Kd stood at 0.033 nM in assay [5], 33 nM in assay [7], 0.386 nM in assay [2] and 0.295 nM in assay [4]. In assay [6], the “fold better affinity than <DIG>-hu2 and the disulfide-stabilized <DIG> scFv” value is ~100 fold. Also, the koff in assay [2] was determined as 0.000676 s⁻¹; in assay [4] it was 0.000675 s⁻¹. Also, the kon worked out at 1.75e+06 M⁻¹ s⁻¹ in assay [2] and 2.28e+06 M⁻¹ s⁻¹ in assay [4].

The Kd is the concentration at which binding is half-saturated. The low end stands for tighter binding, the high end for weaker binding. A word on the koff: it is a measure of how fast the partners let go of each other. Read a low koff as a long-lived complex. By kon is commonly meant a measure of how fast the partners come together. Lower therefore signals slow association.
